Experimental data as given in the domain aggregation screens of Martell et al. (2025).

Test: soluble fraction after stress (log2 fold change); higher = more stays soluble; pooled small domains, quantitative proteomics
Conditions: stress: 50 degC
Method in brief: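 Each library was heated to 50°C as a stress step. The libraries, made up of small protein domains, were pooled and analysed at high throughput by quantitative proteomics. The reported value is the base-two logarithm of the fold change in each protein's soluble amount after stress, taken as a measure of aggregation propensity. The higher the value, the more protein stays in solution.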
In the case of “HMNYTALLNNFSENMKKRRVELSLSQKELASIVGVSVRTIQNYENKKTIPTSAVMESISIALDMGLEKMID”, the “soluble fraction (log2)” value is reported as -1.27. With “HMSSDLLGVRVRRARARAGLTRRRLSLLSGVSERFLAQLESGQGNISIVLIRRVAAALGAELVELIGS” the “soluble fraction (log2)” value was -0.74. In the case of “HMDAEVEHLFRIIAELKEKNVAIIYISHKMDEIFRISDDITVYRDGEYIATDRAENLNVDKVIQLMVGREV”, the “soluble fraction (log2)” value is reported as -0.339. In the case of “HMPKMDGLTVMEQVNQDHFVNKRPYFIVITAVGQEKITEDAFNKGANYYVMKPFNNNMLLERIKSVRK”, the “soluble fraction (log2)” value is reported as 0.294. For “HMDEVLDQFVRGQIYGYIRANPGDIYSSIRDNLGLKNGVTTYHLDVLAREEYVYSEIDGTNRRFYPSGWEE”, the “soluble fraction (log2)” value was -3.2. For “HMSVKYLQIYHAIREKILSNEYAINQQLPDEITLTKEFNSSRMTVKKALDLLVSEGLIFRKRGQGTFVLSR”, the “soluble fraction (log2)” value was -2.27. In the case of “HMGKRKDFTYTGNYFSEYKNQTFPSLSSFLKLVGKYENYGTIKRRVRFGWDIDEAILRENIN”, the “soluble fraction (log2)” value is reported as -0.773. In the case of “HMARSVAEFVERGRSGGSLERPKLQRMLEYIQDRPVDFVIVHKIDRLARNRADDAAITKTIRGAGAYLVST”, the “soluble fraction (log2)” value is reported as -0.0402. In the case of “HMTDEEFSRIVKYTAVRYGINLYHKKVMVEGRLSNYLAANGFKSYTEYMDRVEADYTGQEAQNLINILTT”, the “soluble fraction (log2)” value is reported as -0.258. For “HMRTITIDDSIAGKRLDEALTLLGAESSRTKVKLLFSSPNGVLVNGEKEKPHYRVEAGDVIQFGELPKK”, the “soluble fraction (log2)” value was 0.271. For “HMDPLADLFSRIRNAQMRNKKVVTSPASKLRAGILEVLAKEGYIRGYAMTQHASGKNELDIELN”, the “soluble fraction (log2)” value was -1. In the case of “HMAPQAETLLRQVMALPSKDRAVLYLHYYEGFSTREVGDMLHISQSAVTTRLLRARKKLKEIL”, the “soluble fraction (log2)” value is reported as 0.0889. With “HMRQSIHTALQLLTPREEEVLNLLVSGKSNKQVAEHFSLSSKTIERHRSSVMRKLDASSFAQLVRIAALR” the “soluble fraction (log2)” value was -3.51. In the case of “HMATRAEQMAKTHQAILDTARELFLRNGYDATSTRDIANAIGITQPALYHHFKDKEVIFLAVI”, the “soluble fraction (log2)” value is reported as -0.172. For “HMKKSIRIFELMKAKVAAEIFDQMILEGKIEDVFDIIVRLKDSNVSNIMKTMSVENSSRLVQKLERYNKD”, the “soluble fraction (log2)” value was -2.18. With “HMDEPGAGYKWREDVLLRVMASHGIEESLRDDFVRHAVGFDNDDNMYLKKVEIENAAAAWVAN” the “soluble fraction (log2)” value was -0.377. For “HMPLTEMAVRKHLSAELAQKGYTIDPRALEILLQRTNTNLTAIANELPKLLLVAEDKQITVNEVSAM”, the “soluble fraction (log2)” value was -0.164. For “HMRQQQISAAIKTSVNGTVDYYVRRLPERDPRGDFLEVWDDLQKVIQAAHGIQVSHDELYEYFRRLK”, the “soluble fraction (log2)” value was -0.337. In the case of “HMQMEYEKAIAYILDKIKSGELSIGSKLPAERVIADTLHIGRNSTREALSILHGMGMVDRVHGSGNYISEH”, the “soluble fraction (log2)” value is reported as -0.421. In the case of “HMQQIAVDLSEFKPRLMRDMSSMLAGLYTHDLDLSSLDFSKVANFTFMFRGAIITGTLKMPKI”, the “soluble fraction (log2)” value is reported as 0.00375. With “HMGQAEEVRYSTFLDEVRNGRIEQVVLQGEHIIGTRKDKTVFSVFNPETDYTALIGTLSKSGVTIEGRP” the “soluble fraction (log2)” value was 0.081. For “HMDEALLRATLLDVLVKHHPKIGDKLDVVFALAKAWVSSGSDDDFEVLEKYMERLKPDEALMLASGFSNML”, the “soluble fraction (log2)” value was -0.972. For “HMPSPTPEQVLKAFTDAAMQKNTVEELKQAFAKAWKMLEGTPEQHKAQDVYNIRRDELEGAA”, the “soluble fraction (log2)” value was -0.173. In the case of “HMRKYKIKEELPDNIYKIIQDNPGIVQKDIYDILGREYQQNISSYIYSMDKNGVIKRDKHGNSYKLYL”, the “soluble fraction (log2)” value is reported as -0.318. With “HMSNEKVVKFAQELLVDEERSAISPALISAKIDQVLMFKPAWNEGLDRDAVVNELVRRFSIW” the “soluble fraction (log2)” value was -0.841. In the case of “HMYLGRKATLLSSISGEKMGNAEVLADGNLMSIYVKSLTGEPLSYGSTVLIIKHSEDQNFYLVQN”, the “soluble fraction (log2)” value is reported as -2.58. For “HMDNEIEQIVEDLNLTLSSLKYTKNQIESILPLIIKEIDDFKKKEKNISFENLLKLAMNHLDND”, the “soluble fraction (log2)” value was -0.269. For “HMSSQLETTFATLIGKRVSIRLHDPEGGFRDILGHLESPYSLRNRHGNLIEFAHDQIFLWREVI”, the “soluble fraction (log2)” value was -0.951. With “HMPVEHVWHIAENGQTSGPYSKARMGRMAQEGQLTRDTHVWTPGQDGWMRAGDVTELAQLFT” the “soluble fraction (log2)” value was 0.0486. With “HMLIPTISVTKEGQLRFENIPVSWEELGTRLRDVSDLDKIKIYADAESDALTISEIMKTAANVGIVQFVLV” the “soluble fraction (log2)” value was -0.578. With “HMDEWDPAILYVGLDYEDAAQIATRLATSGVPYRLSPDGTMITVPDDQVNNMRLTLAGEGFPH” the “soluble fraction (log2)” value was -0.0702. In the case of “HMQDRDKNVPAGKELLDNEIARLNMSLKQVEQFALPRYNLKTLEDLYSGIGSGDIRLNHLINFLQSKLI”, the “soluble fraction (log2)” value is reported as -0.135. For “HMETLKEMDSKGAINASEVNVREGAGTSSSKMYSLSKGASVDVTGIKGDWYRVHTSKGTGYVLAKYVTLVS”, the “soluble fraction (log2)” value was -0.0779. In the case of “HMDTIGSKVLAFLAGNLLDPTPFNYRFGYLYLNRTSKVIVEETDTYIDSGMRMTQEAVAEIMQKFAQ”, the “soluble fraction (log2)” value is reported as -3.9. With “HMDPTVTFIVQVNGRVRDKITLSSDISENEAKNVALESPKITPHISGKSLSRVIFVPGKLINLVV” the “soluble fraction (log2)” value was -0.578. With “HMHLDIGQLVQRILADIQVGKLADGQRKLPAEPVLMERYQVTRYTLRQALKQLSNMGYTYQMHGIGTFVRQ” the “soluble fraction (log2)” value was -0.863. In the case of “HMSSIGERISDVRKARGYTQDQLAERIHVSRQTISHWENERALPDFESIKQLSQVLGYDFSS”, the “soluble fraction (log2)” value is reported as -0.00328. In the case of “HMDDINVSNSKNIVPNVTGHTGSKAIPVLENLGLDVQYSGFGKVTNQSIPAGTRFKKGETIYLMLE”, the “soluble fraction (log2)” value is reported as 0.0979. In the case of “HMGPEAFPVPYVVDIELDRAIYVIEQSGFIVGQKLEANDNNVPRGFVISQNPPAGTKLGPESIVDLVVSS”, the “soluble fraction (log2)” value is reported as -0.519. In the case of “HMSNYIVELSSSEKIDDIDNNNNLINSFFSKSDSQWEYKLVFKNKNEMDVFVKKISTNNKIISYKTSS”, the “soluble fraction (log2)” value is reported as 0.149. With “HMGPPAVGAKLQVLRQARKLSLDELSRRAGVSKSMLSQVERNLANPTVAVLWRLATALGVGLADFLSP” the “soluble fraction (log2)” value was -1.39. For “HMGYPGLGSIGSKPLGDLLFQSKLFVKTKREFAEFKMANNNIVWGRRTQYLVRNYPLSVMEVFL”, the “soluble fraction (log2)” value was -0.0279. For “HMGKKYVPGMAVKLSAVPLYAASTSKVPSTHVTGTYYLWDDEVVRGRLRITNLKSRVGISGQVTGWIDKDR”, the “soluble fraction (log2)” value was -1.23. For “HMEASSTAIQAMIRRLIDDENPRKPLSDAKLADLLKSSGIPVARRTVAKYREAMNISASHERVRI”, the “soluble fraction (log2)” value was -0.356. In the case of “HMPSALGDKIRAARKALKLSLEDLAEKVSSSKSYMWELENRDEPNPGADLLMRIAAALNVTTEHLLGP”, the “soluble fraction (log2)” value is reported as -0.0736. With “HMPALELLVESKKPLLIHGEKIAEDINLFDREKYFIDDELIRIVKEFPSLKIILEHVSSKYGAD” the “soluble fraction (log2)” value was -1.5. With “HMKADIEQVQRAFDTLDPKNQQLVLDAMKAATAELDPNSDQFKTNTEFINDNQKALDRHAKAS” the “soluble fraction (log2)” value was 0.125. In the case of “HMTNTYEVIKNDIIFGVLPPLKKLKLLELKKKYITSVSTLREILSRLSGDGFVVSKEQKGFYVSAV”, the “soluble fraction (log2)” value is reported as -0.00437. With “HMYSINKTEFGERIKSAREELKMTQTQLAQLLKTSQTTVAKYEHGEQIPRADVLATISKATGKSTDWLLFG” the “soluble fraction (log2)” value was -0.017. For “HMHPNPLTEQEIAVLKGIAQGLSNQEIADQLYLSNGTVRNYVTNILSKLDAGNRTEAANIAKESGW”, the “soluble fraction (log2)” value was 0.143. In the case of “HMIDFDHADIERLWNSIIHYVPERQKLDFAIDFIKSLEDIGVEHDVLRGSAELDPKLEEAVNTVFE”, the “soluble fraction (log2)” value is reported as -0.52. For “HMSTPLVATLRKRIIDGHYPPGERLAEIPVAEAFGVSRTPVRLAFRTLEQEGLLEKAGKRGYAVRA”, the “soluble fraction (log2)” value was 0.0325. With “HMSISEADAKKIALEKVPGATDSNLRIKTDYDDGIMKYEVKIVYNEMKYEFDIDAATGTILEWESESVY” the “soluble fraction (log2)” value was -0.659. With “HMGSYIGEAKAKEIALSHAGVSASQATFVRSQFEYDDGRAVYDVDFWSGNKEYDYEIDAKSGTIVSYDFD” the “soluble fraction (log2)” value was -0.398. For “HMGSRAEAKEFLQTMLADGRQLATDMEEARQAHDIADRTLRRARKELNVQVYRDGNAWYWELPTPIK”, the “soluble fraction (log2)” value was -0.0501.
